{"source": "the nanobody polyreactivity screen of Harvey et al. (2022)", "data": [{"assay": "yeast display, Sf9 membrane polyspecificity reagent, FACS + sequencing; frameworks hold sequencing errors", "how_it_was_run": "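Galactose induction of a Saccharomyces cerevisiae BJ5465 synthetic nanobody display library ran 36–48 hours. The cells were then stained for 1 hour at 4 °C with 10% biotinylated, detergent-solubilized Sf9 membrane reagent, pulled down on streptavidin microbeads and FACS-sorted into low and high (top ~1%) gates on expression and reagent-binding fluorescence. Labels for polyreactivity follow the gate of origin.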", "values": [{"sequence": "QVQLEESGGRLVQAGGSLRLSCAASGYTFPLYAMGWYRQAPGKERELVADINIGGASTYYADSVKGRFTISRDNAKNTVYLQMNSLKPEDTAVYYCAAEDSWYWDAWFDYWGQGTQVTVSS", "polyreactivity (PSR sort gate)": "low polyreactivity"}, {"sequence": "QVQLEESGGVLVQAGGSLRLSCAASGRIFVWYAMGWYRQAPGKERELVAAISSADSTNYADSVKGRFTISRDNAKNTVYLQMNSLKPEDTAVYYCNAEGWPGNVVYGYYYWGQGTQVTVSS", "polyreactivity (PSR sort gate)": "low polyreactivity"}, {"sequence": "QVQLEESGGVLVQAGGSLRLTCAAAGSILAYNSMGWYREAPGKERELVAAISWTGRTYYADSVKGRFTISRDNEKNTVYLQMNSLIPEDTAVYYCNARGRQRSRGSQIYDYWGQGTQVTVSS", "polyreactivity (PSR sort gate)": "high polyreactivity"}, {"sequence": "QVQLEESGRGLVQAGGSLRISCAASGRIFWGYAMGWYRQAPRKERELVARITSGGDTYYADSVKGRFTISRDNAKNTVYLQMNSLKPEDTAVYYCAAELRPGYRSSYGLIYDYWGQGTQVTVSS", "polyreactivity (PSR sort gate)": "low polyreactivity"}, {"sequence": "QVQLEESGRGLVQAGGSLRLSCAASGFIFYRNTMGWYRQAPGKERELVAAISVSGGSTNYADSVKGRFTISRDNAKNTVYLQINSLKPEVTAVYYCAARVRESLVYGGWDDYWGQGTQVTVSS", "polyreactivity (PSR sort gate)": "high polyreactivity"}, {"sequence": "QVQLEESGRGLVQAGGSLRLSCAASGSIFGVYTMGWYRPAPRKDRELVAAISASGGRTYYADSVKGRFTISRDTAKITVYLQMNSLKPEDTAVYYCAARASKGYGWYDYWGQGTQVTVSS", "polyreactivity (PSR sort gate)": "high polyreactivity"}, {"sequence": "QVQLEESGVGLVQAGGSLRLICAASGFTFYSYAMGWYRQAPGKERELVASISWRGGSTYYADSVKGRFTISRDNAKNTVYLQMNSLKPVDTAVYYCAAQKRGSPVYRRDYWGQGTEVTVSS", "polyreactivity (PSR sort gate)": "high polyreactivity"}, {"sequence": "QVQLEESGVGLVQAGGSLRLSCADSGFSFRTNAMGWYRQAPGKERELVAAISRSSGSTYYADSVKGRFTISRDNSKNTVYLQMNSMKPEETAVYYCNAVRYYSRGYTRYDYWGQGSQVTVSS", "polyreactivity (PSR sort gate)": "high polyreactivity"}, {"sequence": "QVQLEESRGGLGQAGGSLRLICAASGRTFAYNPMGWSRQAPGKERELVSAITWSGGSTYYADSVKGRFTISRDNAKNTVYLQMNSLKPEDTAVYYCAREWFQYSPYHRFDYWGQGTQVTVSS", "polyreactivity (PSR sort gate)": "high polyreactivity"}, {"sequence": "QVQLEESRGGLVQAGGSLRLSCAASGRIFPVYVMGWDRQAPGKERELVAAINYNGGSTTDADSVKGRFTISRDNAKNTVDLQMNSLKPEDTAVYYCAKVGVLGYYTYYYWGQGIQVTVSS", "polyreactivity (PSR sort gate)": "low polyreactivity"}, {"sequence": "QVQLEESVGGLVQAGGSLRLICAASGSIFSSYAMGWYRQAPGKERELVATISKRGGITSYADSVKGRFTISRDNAKNTVYLQMNSLKPEDTAVYYCAADSWFSYRGPLYYWGQGTQVTVSS", "polyreactivity (PSR sort gate)": "high polyreactivity"}, {"sequence": "QVQLEESVGGLVQAGGSLRLICAASGSTFVYNAMGWYRPAPGTERELVAAISSGGSTDYADSVKGRFTISRDNAKNTVYLQMNSLKPEDTAVYYCAARPDYRYHYWGQGTQVTVSS", "polyreactivity (PSR sort gate)": "high polyreactivity"}, {"sequence": "QVQLEESVGGLVQAGGSLRLSCAASGFIFPYYTMGWYRQAPGKERELVAAISRTAVGTYYADSVKGRFTISRDNAKNTVYLQMNSLKPEDTAVYYCAVVTQRKYDYWGQGTQVTVSS", "polyreactivity (PSR sort gate)": "high polyreactivity"}, {"sequence": "QVQLEESVGGLVQAGGSLRLSCAASGRIFTPYAMGWYRQAPGKERELVATISRGTSTSYADSVKGRFTISRDNAKNTVYLQMNSLKPEDTAVYYCAALGPRTTFRYTSYYYWGQGTQVTVSS", "polyreactivity (PSR sort gate)": "high polyreactivity"}, {"sequence": "QVQLEETGGGLVQAGGSLRISCAASGFIFSYNAMGWYRQAPGKERELVATITRRGGGTTYADSVKGRFTISRDNAKNTVYLQMNSLIPEDTAVYYCNRDVNSKLSFGSVGYDYWGQGTQVTVSS", "polyreactivity (PSR sort gate)": "low polyreactivity"}, {"sequence": "QVQLEETGGGLVQAGGSLRLSCAASGFTIYRYALGSYRQAPGKERELVAAISSRGGTTYYADSVKGRFTISRDNAKNTVYLQMNSLKPEDTAVYYCNAGYYLTLDYWGQGTQVTVSS", "polyreactivity (PSR sort gate)": "high polyreactivity"}, {"sequence": "QVQLEETGGGLVQAGGSLRLSCAASGRIFWWYAMGWYRQAPGKERELVAVIDDSGGITYYADSVKGRFTISRDNAKNTVYLQMNSLKPEDTAVYYCARNVNAQKVLAGFDYWGQGTQVTVSS", "polyreactivity (PSR sort gate)": "low polyreactivity"}, {"sequence": "QVQLGDSGGGLLQAGGSLRLSCAASGRTFYYNALGWYRQAPGKERELVARIRSGGSTNYADSVKGRFTISRDNAKNTVYFQMNSRKPEDTAVYYCNALGAKGYVKGFDYWGLGTQVTVSS", "polyreactivity (PSR sort gate)": "low polyreactivity"}, {"sequence": "QVQLGESGGGIVQAGGSLRLSCAASGRTFPYNVMGWYRQAPGKERELVAGITGSGDSTFYADSVKGRFTISRDHAKNTVYLQMNSLKPEDTAVYYCAARYRTLNDGYIRNYWGQGTQVTVSS", "polyreactivity (PSR sort gate)": "low polyreactivity"}, {"sequence": "QVQLGESGGGLCQAGGSLRLSCAASGSIIAGYTMGWYRPAPGNARELVAGIRRGGSTNYADSVKGRVTISRDNAKNTVYLQMNSLKPEDTAVYYCNAQLTRSYVLRTFDYWGQGTQVTVSS", "polyreactivity (PSR sort gate)": "high polyreactivity"}, {"sequence": "QVQLGESGGGLLPAGGSLGLSCAASGSTFGYYAMGWDRQAPGKERELVAAINSGDSTSYADSVKGRFTISRDNAKTTLYLQMNSMKPEDTAVYYCAVRPRRHQYGYWGQGTQVTLSS", "polyreactivity (PSR sort gate)": "low polyreactivity"}, {"sequence": "QVQLGESGGGLLQAGGSLRLSCAASGFTFYGYAMGWYRQAPGKERELVAAISRRGGSTYYADSVKGRFTISRDNAKYTVYVQMNSLKPEDTAVYYCITLFSHLRDRYDYWGQGTEVTVSS", "polyreactivity (PSR sort gate)": "high polyreactivity"}, {"sequence": "QVQLGESGGGLVKAGGSLRLSCAASGRIFFDYGMGGYRQAPGKERELVADITRGGGSTYYADSVKGRFTISRDNAKNTVYLQINSQKPEDTAVYYCAKESSCYYPQRFDYWGQVTQVTVSS", "polyreactivity (PSR sort gate)": "low polyreactivity"}, {"sequence": "QVQLGESGGGLVQAGGILRLSCAASGRIFPQYAMGWYRQAPGKERELVAGITSVGSTYYADSVKGRFTISRDNAKNTVYLQMNSLKPEDTAVYFCAAVPSRYVRANRRTYRYYYWGKGTQVTVSS", "polyreactivity (PSR sort gate)": "high polyreactivity"}, {"sequence": "QVQLGESGGGLVQAGGSLRLICAASGFIFTTYVMGWYRQAPGKERELVAVISRSGGRTYYADSVKGRFTISRDNEKYTVYLLMNSLKPEDTAVYYCNVDIPVLSHIEYYYWGQGTQVTVSS", "polyreactivity (PSR sort gate)": "low polyreactivity"}, {"sequence": "QVQLGESGGGLVQAGGSLRLICAASGLTFSYNDMGWYRQAPGKERELVAGITSNGGSTYYADSVKGRFTITRDNAKNTVYLQMNSLNPEDTAVYYCAAEQYVGVKPFLSDSWGQGNQVTVSS", "polyreactivity (PSR sort gate)": "low polyreactivity"}, {"sequence": "QVQLGESGGGLVQAGGSLRLICAASGRTFKKYPMGWYRQAPGKERDVVAAISWSGGTTYYAHSEKGRFTISRDTAKNTVYLQMNSLKPEDTAVYYSAARVSRTGHGYYYYWGQVTQVTVSS", "polyreactivity (PSR sort gate)": "high polyreactivity"}, {"sequence": "QVQLGESGGGLVQAGGSLRLSCAASGFTFHKNAMGWYRQAPGKERELVAVISQSASSTYYSDSVKGRFTISRDIAKITVYLQMNGLKPEDTAVYYCNAKYYRYNRRNYWGQGTQVTVSS", "polyreactivity (PSR sort gate)": "high polyreactivity"}, {"sequence": "QVQLGESGGGLVQAGGSLRLSCAASGFTFHLYAMGWYRQAPGKERELVAAISQSGDSTYYADSVKGRFTISRDNAKNTVYLQMNSLKPDDTAVYYFNADNDGVVWSYPFDFDYWGQGTQVTVSS", "polyreactivity (PSR sort gate)": "low polyreactivity"}, {"sequence": "QVQLGESGGGLVQAGGSLRLSCAASGGIFAENAIGRYRQAPGKERELVAAINGGGSTKYADSVKGRFTISRDNAKNTVYLQMNSLKPEDTAVYYCAADPSVPRQVDYWGQGTLVTVSS", "polyreactivity (PSR sort gate)": "low polyreactivity"}, {"sequence": "QVQLGESGGGLVQAGGSLRLSCAASGGIFGKYAMGWYRQAPGKERELVAAISGGSRTNYADSVKGRFTISRDNAKNTVYLQMNSLKPEDTAVYYCAARYAYSAQRLYYWGQGTQVTVSS", "polyreactivity (PSR sort gate)": "high polyreactivity"}, {"sequence": "QVQLGESGGGLVQAGGSLRLSCAASGIILHGYAMGWYRPAPGKEREFVATITLSGSSTYYADSVKGRFTISRDNAKNTVYLQMNSRKAEDTAVYYSAARTWVIVYGLQYDYWGHGTQVTVSS", "polyreactivity (PSR sort gate)": "high polyreactivity"}, {"sequence": "QVQLGESGGGLVQAGGSLRLSCAASGITFTKYVMGWYRQAPGKERELVATIRWGASSTHYADSVKGRFTISRDNAKNTVYLQMNSLKPEDTAVYYCNADGWYGAVYWWFYGFDYWGQGTQVTVSS", "polyreactivity (PSR sort gate)": "low polyreactivity"}, {"sequence": "QVQLGESGGGLVQAGGSLRLSCAASGLIFPRYAMGWYRQAPGKERELVAAITRGGSTYYADSVKGRFTISRDNAKNTVYVQMNSLKPEDSAVYYCNDELPVHWSWYDYWGQGTQVTVSS", "polyreactivity (PSR sort gate)": "low polyreactivity"}, {"sequence": "QVQLGESGGGLVQAGGSLRLSCAASGRIFASNAMGWYRPAPGKESELVAAIDQSGGSTYYADSVKGRFTISRDNAKNTVYLQMNSLKPEDTAVYYCAARAYLISSSTPFWTGYDSWGQGTQVTVSS", "polyreactivity (PSR sort gate)": "low polyreactivity"}, {"sequence": "QVQLGESGGGLVQAGGSLRLSCAASGRTFDKNAMGWYRQAPGKERELVATISSGGSTYYADSVKGRFTISRDNAKNTVYLQMNSLKPEDTAVYYCNARGVRATRRRYGYWGQGTQVTVSS", "polyreactivity (PSR sort gate)": "low polyreactivity"}, {"sequence": "QVQLGESGGGLVQAGGSLRLSCAASGRTFGPYAMGWYRQAPGKERELVAAIRYIDDSTFYADSVKGRFTISRDTAKNTVYLQMNSLKPEDTAVYYCAARPYPHSAYEGDYWGRGTQVTVSS", "polyreactivity (PSR sort gate)": "low polyreactivity"}, {"sequence": "QVQLGESGGGLVQAGGSLRLSCAASGRTFYWYTMGWYRQAPGKESELVAAISTRGVRTYYADSVKGRFTISRDNAKNTVYLQMNSLKPADTAVYYCNNYVAYDYWGQGTQVTVSS", "polyreactivity (PSR sort gate)": "low polyreactivity"}, {"sequence": "QVQLGESGGGLVQAGGSLRLSCAASGRTLWFYAMGWYRQAPGKERELVAAISSGGSTNYGDSVKGRFTISRDNAKNTVYLQMNSLKPEDTAVYYCAKVGNIPYGTRYDSNRYDYWGQGTQVTVSS", "polyreactivity (PSR sort gate)": "low polyreactivity"}, {"sequence": "QVQLGESGGGLVQAGGSLRLSCAASGSIFPDNTMGWYRPATGKEWELVAAIDGRGGTTYYADSVKGRFTISRDNAKNTVYLQMNSLKPEDTAVYYCARDIGHSARYDYWGQGTQVTVSS", "polyreactivity (PSR sort gate)": "low polyreactivity"}, {"sequence": "QVQLGESGGGLVQAGGSLRLSCAASGSIFSDYAMGWYRQAPGKERELVAAIRYRGGRTYYADSVKGRFTISRDNAKNTVYLQMNSLKPEDTAVYYCNADVIRRGGSRYSTGREFDYWGQGTQVTVSS", "polyreactivity (PSR sort gate)": "high polyreactivity"}, {"sequence": "QVQLGESGGGLVQAGGSLRLSCAASGSTFAKYAMGWYRQAPGKERELVAAISSSGTCTYYADSVKGRFTISRDNAKNTVYLQMNSRKPEDTAVYYCAASYRNRYIAFYYWGQGTQVTVSS", "polyreactivity (PSR sort gate)": "low polyreactivity"}, {"sequence": "QVQLGESGGGLVQAGGSLRLSCAASGSTFDYYAMGWYRQAPGKERELVAGITSDGSTYYADSVKGRFTISRDNAKNTVYLQMNSLKPEDTAVYYCNKDSTGDGYEYWGQGTQVTVSS", "polyreactivity (PSR sort gate)": "low polyreactivity"}]}]}
